Data on 140 substances can be found in the supplement of paper PMC12042874.

± gives the uncertainty stated by the source.

A short description of this series: amyloid nucleation score (Sup35N fusion, yeast selection) (log enrichment); library NNK2; higher = more nucleation; inactive = no reads after selection. In outline:
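Peptides of 20 random codons, each fused to Sup35N, were expressed in psi-negative yeast. Cells were induced with 100 μM copper sulfate for 24 hours and grown 7 days at 30°C on medium lacking adenine and uracil, and plasmid inserts before and after selection were Illumina-sequenced. Nucleation scores are DiMSum log enrichments of output over input reads, centred on the mode score of non-aggregating sequences, and sequences under 100 input reads were excluded.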
YVCPIHLSDYEVTLECKSHG came in with an amyloid nucleation score of 2.17 ± 0.18.

In the case of DSSGVGTRLDCKLCFENLID, the amyloid nucleation score is -0.952 ± 0.47.

Regarding FYFCF, the amyloid nucleation score is 7.59 ± 0.03.

Regarding YLLSMVRKDPVSRVSLKKGW, the amyloid nucleation score was found to be 0.566 ± 0.66.

Take TLVLTEFDKGIDIVL: the amyloid nucleation score was -0.565 ± 0.26.

For the substance SVYANILFNKACMRFNVVNG, the amyloid nucleation score stood at 0.23 ± 0.21.

For NSYWWFANK, the amyloid nucleation score stood at 2.54 ± 0.08.

Regarding TGFSLVFSWFFLNG, the amyloid nucleation score turned out to be 3.68 ± 0.099.

Consider LRFFHQSL, for which the amyloid nucleation score entry was “inactive”.

The substance FTCFFLVLRVKSLLMVSAVG registered an amyloid nucleation score of 6.34 ± 0.079.

As for FISMLAISDIRHALDWHTSV, the amyloid nucleation score amounted to 0.979 ± 0.17.

On to MDGIGTFNLSENR, for which the amyloid nucleation score entry is “inactive”.

With WKVRISVFMLEAL, the amyloid nucleation score was determined as 2.77 ± 0.075.

As to ECLKYRYSFFNWTSTSVFHA, the amyloid nucleation score is -0.435 ± 0.79.

In turn, RNVSNRPNAQIRKSVRCCWG gave an amyloid nucleation score of 0.388 ± 0.42.

As to VGTISVFIIFHASHVGILHS, the amyloid nucleation score was -1.65 ± 0.53.

The substance TVMLCSMISYKAVLVTYVGG gave an amyloid nucleation score of 1.87 ± 0.13.

NVCLGFFPD yielded an amyloid nucleation score of 0.282 ± 0.8.

In turn, VNREYLLAVTVILQNVKTEE registered an amyloid nucleation score of 8.609 ± 0.036.

On to SSPHWSK, for which the amyloid nucleation score is -0.051 ± 0.37.

Regarding PRCYLVLKFYSQCLFSVHTF, the amyloid nucleation score result was “inactive”.

In the case of TFIVMKIHYRFKVKLICQTC, the amyloid nucleation score came to 0.681 ± 0.46.

Consider LWLVSRRNACFA, for which the amyloid nucleation score is -0.408 ± 1.

In the case of SSSLLRSHRVGYVNLVVRED, the amyloid nucleation score was -0.524 ± 0.55.

As for NNLLRYSVFNI, the amyloid nucleation score entry was “inactive”.

In the case of PRSVFCCLDGRHTPRKMPIY, the amyloid nucleation score was -0.47 ± 0.74.

In turn, VLSDL had an amyloid nucleation score of -1.18 ± 0.75.

NMVLWWPIMYHLAWRLGHDV: the amyloid nucleation score is -0.137 ± 0.38.

As for LYHPACSAFSRSFCVKFLYW, the amyloid nucleation score was -0.837 ± 0.61.

On to YDRIGCRASTSLSAYPLATA, for which the amyloid nucleation score was determined as 2.58 ± 0.076.

In the case of VRNKMSGPLMFIIGLDLSCN, the amyloid nucleation score result was “inactive”.

WFSDIKSPASLLVSVVVVM yielded an amyloid nucleation score of 0.272 ± 0.57.

MFAVLTGSIFKWKWWTIGFR yielded an amyloid nucleation score of -0.265 ± 0.28.

In the case of LGSVLLRFRH, the amyloid nucleation score was -0.469 ± 0.23.

RINNS gave an amyloid nucleation score of -1.44 ± 0.45.

Consider PYQMGSYKLACVQKRPWV, for which the amyloid nucleation score was found to be 0.929 ± 0.58.

For GRNVMTKAPYCTCWANVLHS, the amyloid nucleation score is 6.67 ± 0.075.

KVKGLILDHDYRFRI: the amyloid nucleation score entry was “inactive”.

In turn, RMVSYY had an amyloid nucleation score of -0.474 ± 0.56.

On to MPGQFHFVMNFRINRNYIRS, for which the amyloid nucleation score is 5.92 ± 0.067.

Substance GCRRISFKSHISGVEGTNGG gave an amyloid nucleation score of 1.2 ± 0.43.

Regarding IRDRPHWAGGHLGWPYMWS, the amyloid nucleation score amounted to 4.1 ± 0.1.

On to LVRMIIVYTCRW, for which the amyloid nucleation score was determined as 0.533 ± 0.33.

Regarding YYSVMWYLMERAIN, the amyloid nucleation score was -0.975 ± 0.35.

In turn, EVVLSAILQHYMSFVSGDDL had an amyloid nucleation score of -0.201 ± 0.41.

FYFHEACPSRLHHTKSAIGK registered an amyloid nucleation score of -0.839 ± 0.78.

With FAKIRGLITFVLQMWVTVYV, the amyloid nucleation score is -0.278 ± 0.45.

As to TFPSISTFARSLFFVYQVYP, the amyloid nucleation score was -1.13 ± 1.1.

Regarding WECYLFFCDIVGVGVHWRSS, the amyloid nucleation score is -0.824 ± 0.42.

In the case of NDPGYLTTYI, the amyloid nucleation score was -0.418 ± 0.27.

As to KYRCLLRATPFDKEVGSTRF, the amyloid nucleation score was -0.753 ± 1.

Substance SNVLFLVLHRGRVKAVSRNE showed an amyloid nucleation score of -0.783 ± 1.

TFLIGTV: the amyloid nucleation score was -1.01 ± 0.5.

For the substance FYSAVYMLFIVMWFGYSLIN, the amyloid nucleation score entry was “inactive”.

As for VFERDMLNWVSLSLDHCWCS, the amyloid nucleation score was found to be 1.31 ± 0.36.

With CGFSWCIDQLGTCLCKMVVV, the amyloid nucleation score is -0.269 ± 0.28.

SGDMCFWFSQTRHGLFKGIL showed an amyloid nucleation score of -0.019 ± 0.37.

Substance DSLEGVSCSLMSLSTLTGEC registered an amyloid nucleation score of 0.143 ± 0.54.

With FWRTP, the amyloid nucleation score is -0.539 ± 0.5.

With PYGFRVFTLWMLKRDSS, the amyloid nucleation score was 0.92 ± 0.57.

Substance GCWKD came in with an amyloid nucleation score of 1.22 ± 0.36.

Consider YFNMSLTIPNI, for which the amyloid nucleation score was found to be 0.566 ± 0.47.

Take GWVLI: the amyloid nucleation score is -0.994 ± 1.1.

Regarding NLRGETRGVKLCLIWDVGRA, the amyloid nucleation score amounted to 0.078 ± 0.55.

For VGTWATFYVLTCKGEFDPGL, the amyloid nucleation score was found to be 7.83 ± 0.083.

RDSKFRMPLKWKAFFMGVER came in with an amyloid nucleation score of 1.17 ± 0.38.

In turn, LLLHWRSWMRKCHVITCWSS returned an amyloid nucleation score of 0.436 ± 0.35.

ILVLW: the amyloid nucleation score was -0.022 ± 0.46.

In the case of MFHLRSNVMPTGLVRTPMLL, the amyloid nucleation score was 1.54 ± 0.44.

Substance DSEPVYYTVNFNQLLSRLYY registered an amyloid nucleation score of 1.52 ± 0.32.

Substance ANSVCDNVVTVSLLRLYMVL had an amyloid nucleation score of 5.39 ± 0.071.

Take HLGHKKVRWDMSAELWQ: the amyloid nucleation score turned out to be 2.75 ± 0.1.

As for STSGVKAVQISLSSVPWRWD, the amyloid nucleation score stood at 2.34 ± 0.13.

With VREYYRVERGSFGRISGGCN, the amyloid nucleation score was -0.748 ± 0.78.

The substance WLYSIVCCDRKQSRSGMCDL showed an amyloid nucleation score of 4.96 ± 0.069.

Take FNKNDNYYSAR: the amyloid nucleation score is -0.753 ± 0.78.

Turning to SASMHWYSSRCDTL, the amyloid nucleation score was found to be 0.275 ± 0.29.

The substance IRADIHKLHLTIIYFKPPLV displayed an amyloid nucleation score of -0.47 ± 0.78.

In turn, EQIGQ registered an amyloid nucleation score of 2.92 ± 0.089.

Consider YFFITYVPSEAGYRREKWFG, for which the amyloid nucleation score was 7.34 ± 0.082.

As for GDGHLVILLSHFTPWSLNTG, the amyloid nucleation score is -0.209 ± 0.48.

In the case of GDKCGFCKNAGPGVKVS, the amyloid nucleation score was -0.807 ± 0.79.

For DDSMHWFYLLGWIPVGSKGG, the amyloid nucleation score result was “inactive”.

The substance DYWFLCAICLWVFTGMYLVE showed an amyloid nucleation score of 0.01 ± 0.28.

KATPFAGTLRVYSTVTYCAI: the amyloid nucleation score was determined as 0.148 ± 1.

Consider HGDVIRCRTKIIIAVFGMFM, for which the amyloid nucleation score turned out to be 6.21 ± 0.076.

As to FRVKLTLRFLNITECCLDYL, the amyloid nucleation score was found to be 3.29 ± 0.095.

In turn, LSAVWLWVNFFQHMTNRC came in with an amyloid nucleation score of -1.71 ± 0.76.

HNVVRGFCLVFTIYHSGRTR returned an amyloid nucleation score of 5.1 ± 0.082.

Substance EGIVSMFVIRVYV had an amyloid nucleation score of 0.63 ± 0.46.

On to FYWVLMNYGQLCCWFW, for which the amyloid nucleation score amounted to 1.79 ± 0.2.

Turning to VIWYLRMVSTCNERGVKGIE, the amyloid nucleation score result is “inactive”.

On to ASAEQRNLCIEFASDQLYVI, for which the amyloid nucleation score was -0.478 ± 0.38.

In the case of ILIKYVLAPWSSSLTVWGKA, the amyloid nucleation score was -0.365 ± 0.3.

Regarding SHCSLEDG, the amyloid nucleation score was found to be 1.22 ± 0.12.

VCACKIYKRHTLGSR had an amyloid nucleation score of -0.573 ± 0.76.

Substance MVLVMCPLS registered an amyloid nucleation score of 0.015 ± 0.25.

NSMNVEHNMYNLFIYMPSFV: the amyloid nucleation score stood at 7.065 ± 0.07.

FTGRETFQRKRFAAVLSSSV registered an amyloid nucleation score of -0.062 ± 0.65.

KCMQLAAFTRLLWTGPSARG returned an amyloid nucleation score of 1.85 ± 0.1.

Substance HSLVS returned an amyloid nucleation score of -0.266 ± 1.

In turn, TSNRRTYGWHDQTCGQGVWY yielded an amyloid nucleation score of 1.1 ± 0.29.

In the case of VGCFTRSIGHAM, the amyloid nucleation score was determined as 0.257 ± 0.23.

Regarding LGIVDRTFQSMPYVGWMMV, the amyloid nucleation score was 0.563 ± 0.36.

In the case of YLLYCVS, the amyloid nucleation score entry is “inactive”.

As for STLKPVNPGKVRH, the amyloid nucleation score worked out at 0.445 ± 0.57.

Regarding RRSYFFLVTFTLDVRDMVCF, the amyloid nucleation score worked out at 1.77 ± 0.18.

As to KLHVGNCSFSKPSPAQAGSL, the amyloid nucleation score was determined as 0.34 ± 0.29.

Substance SIGIRIEVLHAYLQTVISNA had an amyloid nucleation score of -0.639 ± 1.

The substance SFVLSSHKA returned an amyloid nucleation score of 0.175 ± 0.61.

In turn, STVFRQSLE had an amyloid nucleation score of 0.269 ± 0.22.

VNSKNYV came in with an amyloid nucleation score of -0.075 ± 0.39.

For the substance IFFALNSTPPYYIYPEFKLQ, the amyloid nucleation score entry is “inactive”.

In the case of KVSWEDSFLFLCQCRRDCTL, the amyloid nucleation score came out at 8.707 ± 0.039.

Substance KNCFMIV showed an amyloid nucleation score of -2.26 ± 1.

Take MDLVCVAKSDVQACTYSAPV: the amyloid nucleation score amounted to 1.1 ± 0.39.

Consider AAFLNWVVCEIENEEGMSWL, for which the amyloid nucleation score entry was “inactive”.

For the substance LFIDDVPVDSITYGIWARGC, the amyloid nucleation score was -1.5 ± 1.1.

Consider MYLAGHLDCGGY, for which the amyloid nucleation score was found to be 3.27 ± 0.055.

In the case of CHRLVLQLI, the amyloid nucleation score result is “inactive”.

Consider DWLNSVFFLPFKCGLCVLRA, for which the amyloid nucleation score amounted to 0.06 ± 0.4.

Regarding VISGGFMF, the amyloid nucleation score is 4.63 ± 0.069.

The substance SRTSSKAYTPYFVSRGHDRY came in with an amyloid nucleation score of -0.903 ± 0.76.

On to CLVVHFPVCQQAKKDCDFRY, for which the amyloid nucleation score is 4.53 ± 0.051.

The substance RKCSLVAEWTGLLLNSFVHN had an amyloid nucleation score of 1.19 ± 0.45.

CVIGADALASG yielded an amyloid nucleation score of 0.5 ± 0.38.

DNSYVMDLECLICCNFSNTK yielded an amyloid nucleation score of 8.201 ± 0.025.

For RSKHQKRSALCYFESGVTAV, the amyloid nucleation score was found to be 0.663 ± 0.37.

DSHADAISVAVKVGRWRYND had an amyloid nucleation score of 1.53 ± 0.23.

For NLVFCFDFQMSAPISGEMQY, the amyloid nucleation score was found to be 4.87 ± 0.098.

On to LWRGRIFLICFRSRDSNMCL, for which the amyloid nucleation score result was “inactive”.

IHNPLVRY yielded an amyloid nucleation score of -0.366 ± 0.41.

The substance VRLFLPHIYKMSLRDGGFEP had an amyloid nucleation score of -0.349 ± 0.63.

Turning to LKVGVIDNI, the amyloid nucleation score is -1.2 ± 0.61.

Substance FVSFSSLTKTLWYRRRRMVR came in with an amyloid nucleation score of -1.06 ± 1.1.

EVHLEVLTNCKKV: the amyloid nucleation score was determined as 5.05 ± 0.051.

In turn, VNMLTGLSKDK had an amyloid nucleation score of -0.142 ± 0.23.

HRFSGVVIYNINRSSTIGN gave an amyloid nucleation score of 7.328 ± 0.04.

For the substance ILDLWIVESKCFTSNMLHWV, the amyloid nucleation score is -0.424 ± 0.76.

For the substance GGISKIFVWEVSIVHYSNIS, the amyloid nucleation score result was “inactive”.
